Measurements reported in publication PMC9376112, “XPC–PARP complexes engage the chromatin remodeler ALC1 to catalyze global genome DNA damage repair” (Nature Communications, 2022).

Assays:
GFP-PARP2 = target: T1, GFP-PARP2 (UniProt Q9UGN5-2 1-570); assay: affinity purification with mass spectrometry; GFP pull-down of PARP1-GFP or GFP-PARP2 from U2OS (FRT) WT cells, label-free proteomics with iBAQ quantification; cells unirradiated or UV-C-irradiated (20 J/m^2, 1 h); settings: partners not purified
T1 construct: also called PARP2-GFP; source: U2OS (FRT) WT, stably expressed (Flp-In, doxycycline-inducible), in lysate; not shown: GFP, N-terminal, kept
T1 sequence (Q9UGN5 other isoform, or with tags, fused parts or gaps): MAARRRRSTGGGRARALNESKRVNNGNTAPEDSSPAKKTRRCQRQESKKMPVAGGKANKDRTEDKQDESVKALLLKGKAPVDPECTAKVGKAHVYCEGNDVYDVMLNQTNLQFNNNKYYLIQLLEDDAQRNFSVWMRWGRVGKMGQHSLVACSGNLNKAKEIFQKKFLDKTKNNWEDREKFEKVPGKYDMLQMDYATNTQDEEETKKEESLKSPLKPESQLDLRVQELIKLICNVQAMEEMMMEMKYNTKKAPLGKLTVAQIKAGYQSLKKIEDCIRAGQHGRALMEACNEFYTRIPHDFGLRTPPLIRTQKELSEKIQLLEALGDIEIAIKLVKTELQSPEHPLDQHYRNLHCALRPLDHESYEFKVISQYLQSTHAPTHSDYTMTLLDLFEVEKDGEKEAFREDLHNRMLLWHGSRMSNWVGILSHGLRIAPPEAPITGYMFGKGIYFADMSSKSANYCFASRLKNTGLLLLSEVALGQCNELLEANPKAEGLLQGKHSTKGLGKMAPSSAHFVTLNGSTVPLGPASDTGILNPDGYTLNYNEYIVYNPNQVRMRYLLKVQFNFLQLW

PARP1-GFP = target: T2, PARP1-GFP (UniProt P09874 1-1014); assay: as above; settings: partners not purified
T2 construct: source: U2OS (FRT) WT, stably expressed (Flp-In, doxycycline-inducible), in lysate; not shown: GFP, C-terminal, kept
T2 sequence (P09874 whole entry): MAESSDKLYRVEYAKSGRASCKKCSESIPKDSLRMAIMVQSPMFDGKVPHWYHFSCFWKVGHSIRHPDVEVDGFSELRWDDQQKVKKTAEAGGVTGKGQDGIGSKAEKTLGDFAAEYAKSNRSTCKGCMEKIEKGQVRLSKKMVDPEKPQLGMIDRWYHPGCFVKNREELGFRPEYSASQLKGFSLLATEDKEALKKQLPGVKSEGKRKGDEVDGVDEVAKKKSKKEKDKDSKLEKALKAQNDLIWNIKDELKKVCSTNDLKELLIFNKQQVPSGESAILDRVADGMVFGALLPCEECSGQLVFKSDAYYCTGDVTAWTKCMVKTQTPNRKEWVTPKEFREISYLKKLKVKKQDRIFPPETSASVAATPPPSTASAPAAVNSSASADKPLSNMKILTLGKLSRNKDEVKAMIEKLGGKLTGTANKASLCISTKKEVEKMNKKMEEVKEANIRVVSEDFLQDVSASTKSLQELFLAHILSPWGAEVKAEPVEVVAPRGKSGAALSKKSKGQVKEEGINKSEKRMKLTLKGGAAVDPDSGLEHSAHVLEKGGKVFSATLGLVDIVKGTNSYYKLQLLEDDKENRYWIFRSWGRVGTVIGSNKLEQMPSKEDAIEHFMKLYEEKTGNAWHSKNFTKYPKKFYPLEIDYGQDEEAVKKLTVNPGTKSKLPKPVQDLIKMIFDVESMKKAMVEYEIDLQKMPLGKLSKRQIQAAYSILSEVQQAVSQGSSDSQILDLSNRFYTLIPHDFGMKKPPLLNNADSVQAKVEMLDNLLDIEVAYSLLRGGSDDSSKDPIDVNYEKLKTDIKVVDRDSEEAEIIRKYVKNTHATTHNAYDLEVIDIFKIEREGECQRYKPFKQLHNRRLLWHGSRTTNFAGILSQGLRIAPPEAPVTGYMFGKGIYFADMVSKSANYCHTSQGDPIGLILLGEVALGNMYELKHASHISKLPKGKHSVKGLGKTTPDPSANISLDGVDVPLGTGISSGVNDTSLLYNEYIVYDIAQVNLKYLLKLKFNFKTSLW

B1: XPC (endogenous) (natural protein, human (endogenous in U2OS), UniProt Q01831 1-940, looked up)
chain: MARKRAAGGEPRGRELRSQKSKAKSKARREEEEEDAFEDEKPPKKSLLSKVSQGKRKRGCSHPGGSADGPAKKKVAKVTVKSENLKVIKDEALSDGDDLRDFPSDLKKAHHLKRGATMNEDSNEEEEESENDWEEVEELSEPVLGDVRESTAFSRSLLPVKPVEIEIETPEQAKTRERSEKIKLEFETYLRRAMKRFNKGVHEDTHKVHLLCLLANGFYRNNICSQPDLHAIGLSIIPARFTRVLPRDVDTYYLSNLVKWFIGTFTVNAELSASEQDNLQTTLERRFAIYSARDDEELVHIFLLILRALQLLTRLVLSLQPIPLKSATAKGKKPSKERLTADPGGSSETSSQVLENHTKPKTSKGTKQEETFAKGTCRPSAKGKRNKGGRKKRSKPSSSEEDEGPGDKQEKATQRRPHGRERRVASRVSYKEESGSDEAGSGSDFELSSGEASDPSDEDSEPGPPKQRKAPAPQRTKAGSKSASRTHRGSHRKDPSLPAASSSSSSSKRGKKMCSDGEKAEKRSIAGIDQWLEVFCEQEEKWVCVDCVHGVVGQPLTCYKYATKPMTYVVGIDSDGWVRDVTQRYDPVWMTVTRKCRVDAEWWAETLRPYQSPFMDREKKEDLEFQAKHMDQPLPTAIGLYKNHPLYALKRHLLKYEAIYPETAAILGYCRGEAVYSRDCVHTLHSRDTWLKKARVVRLGEVPYKMVKGFSNRARKARLAEPQLREENDLGLFGYWQTEEYQPPVAVDGKVPRNEFGNVYLFLPSMMPIGCVQLNLPNLHRVARKLDIDCVQAITGFDFHGGYSHPVTDGYIVCEEFKDVLLTAWENEQAVIERKEKEKKEKRALGNWKLLAKGLLIRERLKRRYGPKSEAAAPHTDAGGGLSSDEEEGTSSQAEAARILAASWPQNREDEEKQKLKGGPKKTKREKKAAASHLFPFEQL
notes: XPC, endogenous in U2OS cells; source: endogenous, U2OS (FRT) WT lysate
**Q.** B1 was tested. Which “fold, fraction of bait molecules associated with XPC, GFP-PARP2 against PARP1-GFP (iBAQ)” value (GFP-PARP2) did it give?
**A.** 10 fold

B2: ALC1 (endogenous) (enzyme, human (endogenous in U2OS), UniProt Q86WJ1 1-897, looked up)
chain: MERAGATSRGGQAPGFLLRLHTEGRAEAARVQEQDLRQWGLTGIHLRSYQLEGVNWLAQRFHCQNGCILGDEMGLGKTCQTIALFIYLAGRLNDEGPFLILCPLSVLSNWKEEMQRFAPGLSCVTYAGDKEERACLQQDLKQESRFHVLLTTYEICLKDASFLKSFPWSVLVVDEAHRLKNQSSLLHKTLSEFSVVFSLLLTGTPIQNSLQELYSLLSFVEPDLFSKEEVGDFIQRYQDIEKESESASELHKLLQPFLLRRVKAEVATELPKKTEVVIYHGMSALQKKYYKAILMKDLDAFENETAKKVKLQNILSQLRKCVDHPYLFDGVEPEPFEVGDHLTEASGKLHLLDKLLAFLYSGGHRVLLFSQMTQMLDILQDYMDYRGYSYERVDGSVRGEERHLAIKNFGQQPIFVFLLSTRAGGVGMNLTAADTVIFVDSDFNPQNDLQAAARAHRIGQNKSVKVIRLIGRDTVEEIVYRKAASKLQLTNMIIEGGHFTLGAQKPAADADLQLSEILKFGLDKLLASEGSTMDEIDLESILGETKDGQWVSDALPAAEGGSRDQEEGKNHMYLFEGKDYSKEPSKEDRKSFEQLVNLQKTLLEKASQEGRSLRNKGSVLIPGLVEGSTKRKRVLSPEELEDRQKKRQEAAAKRRRLIEEKKRQKEEAEHKKKMAWWESNNYQSFCLPSEESEPEDLENGEESSAELDYQDPDATSLKYVSGDVTHPQAGAEDALIVHCVDDSGHWGRGGLFTALEKRSAEPRKIYELAGKMKDLSLGGVLLFPVDDKESRNKGQDLLALIVAQHRDRSNVLSGIKMAALEEGLKKIFLAAKKKKASVHLPRIGHATKGFNWYGTERLIRKHLAARGIPTYIYYFPRSKSAVLHSQSSSSSSRQLVP
notes: ALC1 (CHD1L), endogenous in U2OS cells; also called poly-(ADP-ribose)-dependent chromatin remodeler ALC1; the remodeler; source: endogenous, U2OS (FRT) WT lysate
**Q.** Which results are given for B2?
**A.** percent of the isolated bait molecules associated with the prey (iBAQ) (GFP-PARP2): ~15%; percent of the isolated bait molecules associated with the prey (iBAQ) (PARP1-GFP): 0.07%
